Results on 3 molecules are retold here after paper PMC6007841 (Journal of medicinal chemistry, 2018).

Bridge positions count the residues as written; N and C are the ends. Ends that are not written are not given here.

Common to all, as to experiment: cell-based or functional assay
Experiment [1] deals with human melanocortin 1 receptor (human, UniProt Q01726 1-317).
For experiment [2], the target named is mouse melanocortin 5 receptor (mouse, UniProt P41149 1-325).
The target in experiment [3] is mouse melanocortin 1 receptor (mouse, UniProt Q01727 1-315).
Experiment [4] concerns the target mouse melanocortin 3 receptor (mouse, UniProt P33033 1-323).
Experiment [5] addresses human melanocortin 4 receptor (human, UniProt P32245 1-332).
Experiment [6] concerns the target human melanocortin 3 receptor (human, UniProt P41968 1-323).

human melanocortin 1 receptor, sequence (Q01726 whole entry): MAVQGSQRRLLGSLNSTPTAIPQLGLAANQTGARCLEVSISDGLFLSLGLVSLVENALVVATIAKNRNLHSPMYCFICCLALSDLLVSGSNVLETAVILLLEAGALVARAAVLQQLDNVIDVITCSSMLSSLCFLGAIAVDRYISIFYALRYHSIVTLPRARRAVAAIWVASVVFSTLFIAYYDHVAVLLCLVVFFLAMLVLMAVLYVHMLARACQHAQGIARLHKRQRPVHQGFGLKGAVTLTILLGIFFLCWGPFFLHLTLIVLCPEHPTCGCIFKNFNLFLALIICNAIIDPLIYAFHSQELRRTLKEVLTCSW
human melanocortin 4 receptor, sequence (P32245 whole entry): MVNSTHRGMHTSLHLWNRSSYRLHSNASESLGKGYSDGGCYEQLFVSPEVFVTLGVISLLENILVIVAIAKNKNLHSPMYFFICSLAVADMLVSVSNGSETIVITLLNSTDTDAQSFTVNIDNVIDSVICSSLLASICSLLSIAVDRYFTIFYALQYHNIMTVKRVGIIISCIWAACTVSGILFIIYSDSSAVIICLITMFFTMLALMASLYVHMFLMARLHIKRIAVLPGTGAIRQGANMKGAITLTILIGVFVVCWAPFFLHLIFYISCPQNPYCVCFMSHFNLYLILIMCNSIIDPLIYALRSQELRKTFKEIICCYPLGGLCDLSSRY
mouse melanocortin 5 receptor, sequence (P41149 whole entry): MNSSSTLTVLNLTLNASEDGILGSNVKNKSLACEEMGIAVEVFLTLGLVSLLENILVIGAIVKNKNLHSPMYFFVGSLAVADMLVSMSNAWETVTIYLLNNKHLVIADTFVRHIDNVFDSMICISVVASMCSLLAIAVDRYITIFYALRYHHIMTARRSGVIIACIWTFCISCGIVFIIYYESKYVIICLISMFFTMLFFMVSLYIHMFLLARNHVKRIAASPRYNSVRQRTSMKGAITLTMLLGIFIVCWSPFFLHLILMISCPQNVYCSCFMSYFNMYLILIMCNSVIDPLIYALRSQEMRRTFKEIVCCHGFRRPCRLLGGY
mouse melanocortin 1 receptor, sequence (Q01727 whole entry): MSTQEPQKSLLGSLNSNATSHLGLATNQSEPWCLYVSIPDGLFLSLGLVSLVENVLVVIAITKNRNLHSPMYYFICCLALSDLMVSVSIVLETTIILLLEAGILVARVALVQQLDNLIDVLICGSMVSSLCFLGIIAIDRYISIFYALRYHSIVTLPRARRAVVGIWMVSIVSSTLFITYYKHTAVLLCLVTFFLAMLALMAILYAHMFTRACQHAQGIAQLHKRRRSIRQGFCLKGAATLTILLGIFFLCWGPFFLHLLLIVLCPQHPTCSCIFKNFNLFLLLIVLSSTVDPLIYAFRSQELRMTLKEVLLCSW
mouse melanocortin 3 receptor, sequence (P33033 whole entry): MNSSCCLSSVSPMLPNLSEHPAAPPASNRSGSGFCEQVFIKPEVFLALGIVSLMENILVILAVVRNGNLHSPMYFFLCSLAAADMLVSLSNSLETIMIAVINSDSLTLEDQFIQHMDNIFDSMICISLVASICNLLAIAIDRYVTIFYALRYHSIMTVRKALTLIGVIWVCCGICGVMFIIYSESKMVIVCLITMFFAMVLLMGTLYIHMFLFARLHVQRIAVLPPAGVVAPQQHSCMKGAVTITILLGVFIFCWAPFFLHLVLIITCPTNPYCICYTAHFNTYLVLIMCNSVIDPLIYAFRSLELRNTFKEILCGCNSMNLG
human melanocortin 3 receptor, sequence (P41968 whole entry): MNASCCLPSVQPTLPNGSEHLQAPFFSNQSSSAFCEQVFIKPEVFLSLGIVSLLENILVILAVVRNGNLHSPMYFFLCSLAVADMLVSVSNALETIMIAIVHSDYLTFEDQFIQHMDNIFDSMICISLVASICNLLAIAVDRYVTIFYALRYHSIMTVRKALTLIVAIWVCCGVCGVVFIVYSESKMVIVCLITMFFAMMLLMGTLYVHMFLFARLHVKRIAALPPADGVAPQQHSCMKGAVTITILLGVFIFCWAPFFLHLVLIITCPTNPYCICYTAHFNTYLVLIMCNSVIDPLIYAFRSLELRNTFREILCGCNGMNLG

DQYKCLQHGGFCLRSSCPSNTKLQGTCKPDKPNCCKS (peptide, UniProt P56386 33-69, looked up, disulfide 12-27, 17-35, 5-34) [mouse β-defensin 1, oxidized form]: the “cAMP agonist EC50 (AlphaScreen cAMP assay, HEK293 cells expressing the receptor)” value (shortened to “cAMP agonist EC50”) in experiment [1] was 1.4 µM; in experiment [2], 5.2 µM; in experiment [3], 11 µM; in experiment [4] it was 14 µM; in experiment [5] it was 3.8 µM; in experiment [6], 22 µM.

Turning to GIINTLQKYYCRVRGGRCAVLSCLPKEEQIGKCSTRGRKCCRRKK (peptide, UniProt P81534 23-67, looked up, oxidized, folded form (disulfide bonds formed)) [human β-defensin 3, oxidized, folded form], the “cAMP agonist EC50” value in experiment [1] was found to be 0.4 µM; in experiment [2], 4.7 µM; in experiment [3], 2.2 µM; in experiment [5], 2.6 µM.

Turning to DHYNCVSSGGQCLYSACPIFTKIQGTCYRGKAKCCK (peptide, UniProt P60022 33-68, looked up, oxidized form (disulfide bonds formed)) [human β-defensin 1, oxidized form], the “cAMP agonist EC50” value in experiment [1] stood at 7.4 µM.
